Measurements: patent publication US20170304361A1

The substances below were run against Insulin Receptor (Isoform B by the title of Table 1; 'the A isoform of the insulin receptor' by the text) (UniProt P06213) (assay: competitive displacement of radiolabelled tracer; relative to wild-type human insulin).

Substance	relative affinity [%]
GluA8, GlyA21 derivative of AspB10, 2F-PheB24, GluB29-human insulin (T-0348) (ligand)	44
GlyA21 derivative of AspB10, 2F-PheB24, LysB28, ProB29-human insulin (T-0346) (ligand)	59
GlyA21 derivative of AspB10, ortho-fluoro-PheB24, GluB29-insulin (T-0347) (ligand)	42

More lines, now with the values ahead:

relative affinity [%]	Substance
52	GluA8 derivative of AspB10, 2F-PheB24, LysB28, ProB29-human insulin (T-0338) (ligand)
43	GluA8 derivative of AspB10, ortho-fluoro-PheB24, GluB29-insulin (T-0339) (ligand)
